Read-outs that look alike come from different tables or passages of the source. [ ]: non-standard residue; d: D form. Nle = CCCC[C@H](N)C(=O)O
Key:
[1] = biological target: T1, human melanocortin-1 receptor (hMCR-1) expressed by the human melanoma cell line HBL (human, UniProt Q01726 1-317); assay: cell-based or functional assay
[2] = biological target: T1, human melanocortin-1 receptor (hMCR-1) …; assay: cell-based or functional assay; remark: listed apart in the source
[3] = biological target: T2, recombinant human melanocortin-4 receptor (hMCR-4) in membrane homogenates of HEK-293 cells (human, UniProt P32245 1-332); assay: competitive inhibition of [I125]-NDP-alpha-MSH, hMCR-4 HEK-293 membranes
T2 construct: whole, on cells; Used as membrane homogenates, not intact cells; also called MC-4
Method: (§1) A competitive inhibition binding assay was performed using membrane homogenates prepared from HEK-293 cells that express recombinant hMCR-la or hMCR-4 (in each instance where the h prefix refers to human), or alternatively membrane homogenates from B16-F10 mouse melanoma cells containing endogenous murine MCR-1. In the examples that follow, all MCR-1 and MCR-4 values are for human recombinant receptors, unless otherwise noted. Assays were performed in 96 well polypropylene round-bottom plates (VWR catalog number 12777-030).
(§2) Membrane homogenates were incubated with 0.1 nM [I¹²⁵]-NDP-α-MSH (Perkin Elmer) and increasing concentrations of test peptides of the present invention in buffer containing 25 mM HEPES buffer (pH 7.5) with 100 mM NaCl, 2 mM CaCl₂, 2 mM MgCl₂, 0.3 mM 1,10-phenanthroline, and 0.2% bovine serum albumin. After incubation for 90 minutes at 37° C., the assay mixture was filtered onto GF/B Unifilter plates (Perkin-Elmer catalog number 6005177) and washed with 3 mL of ice-cold buffer per well. Filters were air dried and 35 μL of scintillation cocktail added to each well. Plates were counted in a Microbeta counter for bound radioactivity. […] Maximal specific binding (100%) was defined as the difference in radioactivity (cpm) bound to cell membranes in the absence and presence of 1 μM NDP-α-MSH. Each assay was conducted in duplicate and the actual mean values are described, with results less than 0% reported as 0%. Ki values for peptides of the present invention were determined using Graph-Pad PRISM® curve-fitting software.

[4] = biological target: T1, human melanocortin-1 receptor (hMCR-1) …; assay: cell-based or functional assay; remark: listed apart in the source
[5] = biological target: T3, recombinant human melanocortin-1 receptor (hMCR-1a) in membrane homogenates of HEK-293 cells (human, UniProt Q01726 1-317); assay: competitive inhibition of [I125]-NDP-alpha-MSH, hMCR-1 HEK-293 membranes
T3 construct: whole, on cells; Used as membrane homogenates, not intact cells; also called hMCR-la; MC-1
Method: as §1, §2

[6] = biological target: T1, human melanocortin-1 receptor (hMCR-1) …; assay: cell-based or functional assay; remark: listed apart in the source
[7] = biological target: T1, human melanocortin-1 receptor (hMCR-1) …; assay: cell-based or functional assay; remark: listed apart in the source
[8] = biological target: T1, human melanocortin-1 receptor (hMCR-1) …; assay: cell-based or functional assay; remark: listed apart in the source
[9] = biological target: T1, human melanocortin-1 receptor (hMCR-1) …; assay: cell-based or functional assay; remark: listed apart in the source

T1 sequence (Q01726 whole entry): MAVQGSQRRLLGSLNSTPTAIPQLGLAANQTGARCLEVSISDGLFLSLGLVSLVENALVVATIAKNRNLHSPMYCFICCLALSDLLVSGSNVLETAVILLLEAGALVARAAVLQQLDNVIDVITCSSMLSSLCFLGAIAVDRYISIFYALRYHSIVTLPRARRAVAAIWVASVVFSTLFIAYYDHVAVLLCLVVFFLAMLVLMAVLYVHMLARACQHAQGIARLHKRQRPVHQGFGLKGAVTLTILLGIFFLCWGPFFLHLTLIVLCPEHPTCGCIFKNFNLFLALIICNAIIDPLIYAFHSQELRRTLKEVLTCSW
T3 sequence (Q01726 whole entry): as above
T2 sequence (P32245 whole entry): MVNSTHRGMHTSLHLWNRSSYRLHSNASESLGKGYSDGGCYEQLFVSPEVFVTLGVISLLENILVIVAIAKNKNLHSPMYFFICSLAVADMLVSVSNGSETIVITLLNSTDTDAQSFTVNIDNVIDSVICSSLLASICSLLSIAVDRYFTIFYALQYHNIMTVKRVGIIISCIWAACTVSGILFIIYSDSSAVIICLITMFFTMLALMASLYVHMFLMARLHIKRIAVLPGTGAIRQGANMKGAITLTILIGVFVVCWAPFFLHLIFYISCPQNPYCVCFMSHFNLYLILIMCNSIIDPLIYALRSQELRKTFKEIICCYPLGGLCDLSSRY

Binder	Ki [3] [nM]	Ki [5] [nM]	also measured
Ac-[Nle]AH[dF]R[dP][dW]-NH2 (SMILES CCCC[C@H](NC(C)=O)C(=O)N[C@@H](C)C(=O)N[C@@H](Cc1c[nH]cn1)C(=O)N[C@H](Cc1ccccc1)C(=O)N[C@@H](CCCNC(=N)N)C(=O)N1CCC[C@@H]1C(=O)N[C@H](Cc1c[nH]c2ccccc12)C(N)=O) [Ac-Nle-Ala-His-D-Phe-Arg-D-Pro-D-Trp-NH2]			MC-1 EC50 (average; cAMP HBL) [1]: 2 nM
Ac-[Nle]AH[dF]RP[dW]-NH2 (SMILES CCCC[C@H](NC(C)=O)C(=O)N[C@@H](C)C(=O)N[C@@H](Cc1c[nH]cn1)C(=O)N[C@H](Cc1ccccc1)C(=O)N[C@@H](CCCNC(=N)N)C(=O)N1CCC[C@H]1C(=O)N[C@H](Cc1c[nH]c2ccccc12)C(N)=O) [Ac-Nle-Ala-His-D-Phe-Arg-Pro-D-Trp-NH2]			MC-1 EC50 (average; cAMP HBL) [2]: 0.17 nM
Ac-[Nle]AH[dF]RAW-NH2 (SMILES CCCC[C@H](NC(C)=O)C(=O)N[C@@H](C)C(=O)N[C@@H](Cc1c[nH]cn1)C(=O)N[C@H](Cc1ccccc1)C(=O)N[C@@H](CCCNC(=N)N)C(=O)N[C@@H](C)C(=O)N[C@@H](Cc1c[nH]c2ccccc12)C(N)=O, synthetic linear peptide) [Ac-Nle-Ala-His-D-Phe-Arg-Ala-Trp-NH2]	1740	0.2	MC-1 EC50 (average; cAMP HBL) [4]: 0.02 nM
Ac-[Nle]AHFRAW-NH2 (SMILES CCCC[C@H](NC(C)=O)C(=O)N[C@@H](C)C(=O)N[C@@H](Cc1c[nH]cn1)C(=O)N[C@@H](Cc1ccccc1)C(=O)N[C@@H](CCCNC(=N)N)C(=O)N[C@@H](C)C(=O)N[C@@H](Cc1c[nH]c2ccccc12)C(N)=O, synthetic linear peptide) [Ac-Nle-Ala-His-Phe-Arg-Ala-Trp-NH2]	10000	85	MC-1 EC50 (average; cAMP HBL) [6]: 4 nM
Ac-[Nle]A[dF]RAW-NH2 (SMILES CCCC[C@H](NC(C)=O)C(=O)N[C@@H](C)C(=O)N[C@H](Cc1ccccc1)C(=O)N[C@@H](CCCNC(=N)N)C(=O)N[C@@H](C)C(=O)N[C@@H](Cc1c[nH]c2ccccc12)C(N)=O, synthetic linear peptide) [Ac-Nle-Ala-D-Phe-Arg-Ala-Trp-NH2]	10000	6680	
Ac-[Nle]AH[dF]RA[dW]-NH2 (SMILES CCCC[C@H](NC(C)=O)C(=O)N[C@@H](C)C(=O)N[C@@H](Cc1c[nH]cn1)C(=O)N[C@H](Cc1ccccc1)C(=O)N[C@@H](CCCNC(=N)N)C(=O)N[C@@H](C)C(=O)N[C@H](Cc1c[nH]c2ccccc12)C(N)=O) [Ac-Nle-Ala-His-D-Phe-Arg-Ala-D-Trp-NH2]			MC-1 EC50 (average; cAMP HBL) [8]: 0.6 nM
Ac-[Nle]AH[dF]R[dP]W-NH2 (SMILES CCCC[C@H](NC(C)=O)C(=O)N[C@@H](C)C(=O)N[C@@H](Cc1c[nH]cn1)C(=O)N[C@H](Cc1ccccc1)C(=O)N[C@@H](CCCNC(=N)N)C(=O)N1CCC[C@@H]1C(=O)N[C@@H](Cc1c[nH]c2ccccc12)C(N)=O) [Ac-Nle-Ala-His-D-Phe-Arg-D-Pro-Trp-NH2]			MC-1 EC50 (average; cAMP HBL) [9]: 1 nM

More lines, main results first:

Ki [3] [nM]	Ki [5] [nM]	Binder	also measured
10000	340	Ac-[Nle]AHFRGW-NH2 (SMILES CCCC[C@H](NC(C)=O)C(=O)N[C@@H](C)C(=O)N[C@@H](Cc1c[nH]cn1)C(=O)N[C@@H](Cc1ccccc1)C(=O)N[C@@H](CCCNC(=N)N)C(=O)NCC(=O)N[C@@H](Cc1c[nH]c2ccccc12)C(N)=O, synthetic linear peptide) [Ac-Nle-Ala-His-Phe-Arg-Gly-Trp-NH2]	MC-1 EC50 (average; cAMP HBL) [7]: 21 nM
10000	5920	Ac-[Nle]HFRAW-NH2 (SMILES CCCC[C@H](NC(C)=O)C(=O)N[C@@H](Cc1c[nH]cn1)C(=O)N[C@@H](Cc1ccccc1)C(=O)N[C@@H](CCCNC(=N)N)C(=O)N[C@@H](C)C(=O)N[C@@H](Cc1c[nH]c2ccccc12)C(N)=O, synthetic linear peptide) [Ac-Nle-His-Phe-Arg-Ala-Trp-NH2]	

— patent US20150119341A1 (PALATIN TECHNOLOGIES, published 2015)
